Each block holds one sequence with its values, some of them ahead of it.
Assays:
[1] = target: HLA-A*32:01; experiment: IEDB peptide-MHC binding, purified MHC/competitive/radioactivity; filed as Kd, often an IC50 or EC50 that approximates it; ≥ and ≤ were set here for values at or beyond the usual limits of such assays
[2] = target: HLA-A*30:01; experiment: as above
[3] = target: HLA-A*02:01; experiment: IEDB peptide-MHC binding, purified MHC/direct/fluorescence; filed as Kd, often an IC50 or EC50 that approximates it; ≥ and ≤ were set here for values at or beyond the usual limits of such assays
[4] = target: HLA-A*69:01; experiment: as above
[5] = target: HLA-A*03:01; experiment: as above
[6] = target: HLA-A*11:01; experiment: as above
[7] = target: HLA-B*08:01; experiment: IEDB peptide-MHC binding, purified MHC/competitive/radioactivity; filed as Kd, often an IC50 or EC50 that approximates it; ≥ and ≤ were set here for values at or beyond the usual limits of such assays
[8] = target: HLA-A*02:01; experiment: IEDB peptide-MHC binding, purified MHC/competitive/fluorescence; ≥ and ≤ were set here for values at or beyond the usual limits of such assays
[9] = target: HLA-B*40:01; experiment: IEDB peptide-MHC binding, purified MHC/direct/fluorescence; filed as Kd, often an IC50 or EC50 that approximates it; ≥ and ≤ were set here for values at or beyond the usual limits of such assays; details: source organism: Homo sapiens
[10] = target: HLA-B*53:01; experiment: IEDB peptide-MHC binding, purified MHC/competitive/radioactivity; filed as Kd, often an IC50 or EC50 that approximates it; ≥ and ≤ were set here for values at or beyond the usual limits of such assays
[11] = target: HLA-A*26:01; experiment: IEDB peptide-MHC binding, purified MHC/direct/fluorescence; filed as Kd, often an IC50 or EC50 that approximates it; ≥ and ≤ were set here for values at or beyond the usual limits of such assays
[12] = target: HLA-A*33:01; experiment: IEDB peptide-MHC binding, purified MHC/competitive/radioactivity; filed as Kd, often an IC50 or EC50 that approximates it; ≥ and ≤ were set here for values at or beyond the usual limits of such assays; details: source organism: Dengue virus 1 Brazil/97-11/1997
[13] = target: HLA-B*40:01; experiment: as above; details: source organism: Dengue virus 3 Martinique/1243/1999
[14] = target: HLA-A*01:01; experiment: IEDB peptide-MHC binding, purified MHC/direct/fluorescence; filed as Kd, often an IC50 or EC50 that approximates it; ≥ and ≤ were set here for values at or beyond the usual limits of such assays; details: source organism: Haemophilus influenzae
[15] = target: HLA-A*31:01; experiment: as above; details: source organism: Haemophilus influenzae
[16] = target: HLA-B*15:01; experiment: as above; details: source organism: Haemophilus influenzae
[17] = source organism: Dengue virus 2 Jamaica/1409/1983
[18] = source organism: Vaccinia virus WR
[19] = source organism: Bacillus cytotoxicus
[20] = source organism: Francisella tularensis subsp. holarctica LVS
[21] = source organism: Dengue virus 1 Brazil/97-11/1997
[22] = source organism: Dengue virus 4 Philippines/H241/1956
[23] = source organism: Dengue virus 3 Martinique/1243/1999
[24] = source organism: Bacillus anthracis
[25] = source organism: Haemophilus influenzae

Sequence: AAIGKAWEEG
Kd ([1]; source organism: Dengue virus 1 Singapore/S275/1990): ≥ 69900 nM

Sequence: AGILKRWGTI
Kd [1, 17]: 8820 nM

Sequence: AGRLVRPFL
Kd [2, 18]: 252 nM

Sequence: ALSGFYYVQ
Kd [3, 19]: 1400 nM | Kd [4, 19]: 2360 nM

Sequence: AVYSICKFY
Kd [5, 20]: 297 nM | Kd [6, 20]: 708 nM

Sequence: AYRIKQRGIL
Kd [7, 17]: 659 nM

Sequence: DARTYSDPLA
Kd [2, 21]: 924 nM

Sequence: DEAHFTDPSS
Kd [2, 22]: 165 nM

Sequence: DQLSKFRTL
Kd [7, 18]: 7.4 nM

Sequence: DSMFLMTAT
IC50 ([8]; source organism: Variola virus): 4400 nM

Sequence: DTQGSNWIQK
Kd [1, 17]: 267 nM

Sequence: EDMLTVWNRV
Kd [1, 23]: 13600 nM

Kd [9]: 364 nM | Kd ([4]; source organism: Homo sapiens): 4640 nM
Sequence: EHAGVISVL

Sequence: EKEENMVKSL
Kd [7, 23]: 10600 nM

Sequence: EKWKRQLNSL
Kd [7, 22]: 251 nM

Sequence: EPPFGDSYII
Kd [10, 17]: 363 nM

Sequence: EQDGITYYL
Kd [3, 24]: ≥ 20000 nM | Kd [4, 24]: 12.5 nM

Sequence: ETFKVIGGW
Kd ([11]; source organism: Influenza A virus (A/swine/Italy/1654-1/99(H1N2))): 182 nM

Sequence: EVAGAGSGF
Kd ([11]; source organism: Mycobacterium tuberculosis variant bovis): 1.4 nM

Sequence: EVKTCTWPKS
Kd [1, 23]: ≥ 48400 nM

Sequence: FFINFFNLL
Kd [7, 18]: 149 nM

Sequence: FGIFTTNIW
Kd [10, 21]: 168 nM

Sequence: FMNEDHWFSR
Kd [12]: 13.2 nM | Kd [1, 21]: 7080 nM

Kd ([5]; source organism: Escherichia coli O157:H7): 46.7 nM
Sequence: FVYHPDRLK

Sequence: GAKIGCINV
Kd [2, 18]: 9.11 nM

Sequence: GEGVLSKADL
Kd [13]: 42.4 nM

Sequence: GLFPVSIPIT
Kd ([2]; source organism: Dengue virus 2 Peru/IQT2913/1996): 15900 nM

Sequence: GLITSTVTG
IC50 ([8]; source organism: Sudan ebolavirus): 12400 nM

Sequence: GLRNSLLVA
Kd [2, 18]: 93.5 nM

Sequence: GRLITANPVV
Kd [2, 23]: 1430 nM

Sequence: GRTLRVLKMV
Kd [2, 21]: 634 nM

Sequence: GSTLAGVNV
IC50 ([8]; source organism: Zaire ebolavirus): ≥ 95000 nM

Kd [5, 25]: 2730 nM | Kd [6, 25]: 166 nM | Kd [14]: 241 nM | Kd [15]: 8180 nM | Kd [16]: 1160 nM | Kd [4, 25]: 4450 nM
Sequence: GTEMFRHGY

Source: the Immune Epitope Database (IEDB)
